Assay [1] deals with MC3T3-E1 osteoblasts. Put plainly: Cell viability of MC3T3-E1 osteoblasts under fetal bovine serum deficiency. The format is cell-based. Conditions: co-treatment with conjugate (2 μM) and GIP inhibitor 0.31, 1.25, 5, 20 μM; dose-dependent manner (FIG. 5). Here is the method:
MC3T3-E1 osteoblasts were dispensed into 96-well plates at 10,000 cells/well and incubated for 24 hours using a medium containing 10% fetal bovine serum. The medium in a normal group was replaced with a medium containing 10% bovine fetal serum, and the medium in each of the test groups was replaced with a medium containing no bovine fetal serum. […] The medium in each of the normal group and test groups was replaced, and after 48 hours, the cells were further incubated. Thereafter, the cell viability was analyzed using a collagen assay kit (Biocolor) according to the manufacturers instructions. The GIP inhibitor is GIP 3-30, in which the N-terminus region was absent in native GIP.

The test system of assay [2] is MC3T3-E1 osteoblasts. Put plainly: ColA1 protein in medium of MC3T3-E1 osteoblasts (collagen assay kit). The format is cell-based. Particulars: co-treatment with GIP inhibitor (10 μM or 100 μM), 7 days (FIG. 4). Here is the method:
MC3T3-E1 osteoblasts were dispensed into 12-well plates at 100,000 cells/well and incubated for 24 hours using a medium containing 10% fetal bovine serum. […] The long-acting GIP used in the present invention was prepared by the same method as in the long-acting conjugate of the triple agonist illustrated in Example 2, wherein the long-acting GIP is in a form in which immunoglobulin Fc was linked to GIP analog via PEG, and the GIP inhibitor is GIP 3-30, in which the N-terminus was absent in native GIP.
After 7 days, the incubated medium was collected, and ColA1 in the medium was quantified using a collagen assay kit (Biocolor) according to the manufacturer's instructions.
Statistical analysis was performed by one-way ANOVA to compare between the control group and the test groups.

The target in assay [3] is human GLP-1 receptor (human, UniProt P43220 24-463). Put plainly: cell-based or functional assay.
In assay [4] the target is T1, human GIP receptor (human, UniProt P48546 22-466).
T1 sequence (looked up): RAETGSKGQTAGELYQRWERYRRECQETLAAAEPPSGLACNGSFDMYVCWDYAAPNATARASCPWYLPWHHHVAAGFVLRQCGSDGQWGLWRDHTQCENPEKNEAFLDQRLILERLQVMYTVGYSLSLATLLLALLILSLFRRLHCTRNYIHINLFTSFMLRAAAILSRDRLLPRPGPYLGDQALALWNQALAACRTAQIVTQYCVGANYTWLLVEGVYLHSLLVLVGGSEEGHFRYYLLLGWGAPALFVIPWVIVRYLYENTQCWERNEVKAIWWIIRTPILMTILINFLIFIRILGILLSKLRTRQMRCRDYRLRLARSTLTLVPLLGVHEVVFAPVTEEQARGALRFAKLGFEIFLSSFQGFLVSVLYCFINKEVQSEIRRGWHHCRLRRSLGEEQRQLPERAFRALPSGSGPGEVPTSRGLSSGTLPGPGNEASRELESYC
Put plainly: cell-based or functional assay.

Assay [5] deals with human GCG receptor (human, UniProt P47871 26-477). Kind of assay: cell-based or functional assay.
Chain of human GCG receptor (P47871 26-477): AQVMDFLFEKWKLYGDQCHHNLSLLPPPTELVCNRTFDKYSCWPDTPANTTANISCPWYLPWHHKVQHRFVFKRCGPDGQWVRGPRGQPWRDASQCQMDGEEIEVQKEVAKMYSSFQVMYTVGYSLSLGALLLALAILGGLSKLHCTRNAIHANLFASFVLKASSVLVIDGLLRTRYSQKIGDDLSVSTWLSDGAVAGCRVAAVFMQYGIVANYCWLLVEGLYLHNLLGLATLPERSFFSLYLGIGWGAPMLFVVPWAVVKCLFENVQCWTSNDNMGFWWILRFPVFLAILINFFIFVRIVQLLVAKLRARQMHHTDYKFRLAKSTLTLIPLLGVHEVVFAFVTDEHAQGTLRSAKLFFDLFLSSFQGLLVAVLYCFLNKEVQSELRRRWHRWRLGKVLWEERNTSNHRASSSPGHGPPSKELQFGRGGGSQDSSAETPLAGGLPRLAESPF

Here are results for 19 molecules from US20230355720A1, “PHARMACEUTICAL COMPOSITION FOR PREVENTING OR TREATING BONE DISEASES, COMPRISING TRIPLE AGONIST OR CONJUGATE THEREOF HAVING ACTIVITY WITH RESPECT TO ALL OF GLUCAGON, GLP-1 AND GLP RECEPTORS” (HANMI PHARM. CO., LTD., priority 2020, published 2023).

Bridge positions count the residues as written; N and C are the ends. Square brackets hold non-standard residues; d marks the D form. Ends that are not written are not given here. * marks the point of attachment. Acetyl(2-(4-imidazolyl)) = O=C(Cc1c[nH]cn1)*; Aib = CC(C)(N)C(=O)O

On to “GIP 3-30 (EGTFISDYSIAMDKIHQQDFVNWLLAQK; Gastric inhibitory polypeptide; UniProt P09681 54-81, looked up, fragment) [GIP inhibitor, GIP 3-30, in which the N-terminus was absent in native GIP, reference compound]”, for which the “cell viability increased by the long-acting conjugate of SEQ ID NO: 42” value in assay [1] was “reduced”. Also, the “effect of the long-acting conjugate of SEQ ID NO: 42 on the expression of ColA1 protein” value in assay [2] is “reduced”.

B1: triple agonist of SEQ ID NO: 33 (peptide)
peptide: H[Aib]QGTFTSDYSIAMDEIHQKDFVNWLLAQKC
modifications: bridge 16-20; not fully specified
Take B1: the “In vitro activity (%) compared with native peptide, vs GLP-1” value (shortened to “In vitro activity (%) … vs GLP-1”) in assay [3] was determined as 24.5%. Further, the “In vitro activity (%) compared with native peptide, vs GIP” value (shortened to “In vitro activity (%) … vs GIP”) in assay [4] came to 10.4%. Besides, in assay [5], the “In vitro activity (%) compared with native peptide, vs Glucagon” value (“In vitro activity (%) … vs Glucagon” for short) was below 0.1%.

B2: triple agonist of SEQ ID NO: 20 (peptide)
peptide: [Acetyl(2-(4-imidazolyl))]GQGTFTSDLSIQYEEEAQQDFVEWLKDTGPSSGAPPPSHG
modifications: not fully specified
On to B2, for which the “In vitro activity (%) … vs GLP-1” value in assay [3] is below 0.1%. Also, the “In vitro activity (%) … vs GIP” value in assay [4] was below 0.1%. The “In vitro activity (%) … vs Glucagon” value in assay [5] is below 0.1%.

B3: triple agonist of SEQ ID NO: 23 (peptide)
peptide: Y[Aib]QGTFTSDYSKYLDECRAKEFVQWLLAQKGKKNDWKHNIT
modifications: bridge 16-20; not fully specified
Consider B3, for which, in assay [3], the “In vitro activity (%) … vs GLP-1” value was 4.01%. Moreover, the “In vitro activity (%) … vs GIP” value in assay [4] was below 0.1%. Also, the “In vitro activity (%) … vs Glucagon” value in assay [5] was 9.3%.

B4: triple agonist of SEQ ID NO: 31 (peptide)
peptide: H[Aib]QGTFTSDYSKYLDEKACKEFVQWLLAQ
modifications: bridge 16-20
Take B4: the “In vitro activity (%) … vs GLP-1” value in assay [3] stood at 135%. The “In vitro activity (%) … vs GIP” value in assay [4] was 2.4%. Besides, in assay [5], the “In vitro activity (%) … vs Glucagon” value amounted to 2.2%.

B5: triple agonist of SEQ ID NO: 28 (peptide)
peptide: H[Aib]QGTFTSDYSKYLDEKRAQEFVCWLLAQKGKKNDWKHNIT
modifications: not fully specified
Regarding B5, in assay [3], the “In vitro activity (%) … vs GLP-1” value turned out to be 17.2%. Moreover, the “In vitro activity (%) … vs GIP” value in assay [4] is below 0.1%. Further, in assay [5], the “In vitro activity (%) … vs Glucagon” value came out at 1.6%.

B6: triple agonist of SEQ ID NO: 25 (peptide)
peptide: H[Aib]QGTFTSDCSKYLDERAAQDFVQWLLDGGPSSGAPPPS
modifications: not fully specified
For the molecule B6, the “In vitro activity (%) … vs GLP-1” value in assay [3] is 82.6%. Besides, in assay [4], the “In vitro activity (%) … vs GIP” value is below 0.1%. Moreover, the “In vitro activity (%) … vs Glucagon” value in assay [5] worked out at 0.1%.

B7: triple agonist of SEQ ID NO: 29 (peptide)
peptide: H[Aib]QGTFTSDYSKYLDEKAAKEFVQWLLNTC
modifications: bridge 16-20; not fully specified
For B7, the “In vitro activity (%) … vs GLP-1” value in assay [3] was found to be 38.5%. For the same molecule, the “In vitro activity (%) … vs GIP” value in assay [4] is below 0.1%. For the same molecule, the “In vitro activity (%) … vs Glucagon” value in assay [5] was 6%.

B8: triple agonist of SEQ ID NO: 22 (peptide)
peptide: Y[Aib]QGTFTSDYSKCLDEKRAKEFVQWLLDHHPSSGQPPPS
modifications: bridge 16-20
Turning to B8, the “In vitro activity (%) … vs GLP-1” value in assay [3] amounted to 20.1%. Moreover, the “In vitro activity (%) … vs GIP” value in assay [4] was 59.7%. In addition, the “In vitro activity (%) … vs Glucagon” value in assay [5] came out at 140%.

B9: triple agonist of SEQ ID NO: 19 (peptide)
peptide: [Acetyl(2-(4-imidazolyl))]GQGTFTSDLSIQYDSEHQRDFIEWLKDTGPSSGAPPPSHG
modifications: not fully specified
As for B9, the “In vitro activity (%) … vs GLP-1” value in assay [3] was below 0.1%. The “In vitro activity (%) … vs GIP” value in assay [4] was below 0.1%. In assay [5], the “In vitro activity (%) … vs Glucagon” value is below 0.1%.

B10: triple agonist of SEQ ID NO: 32 (peptide)
peptide: H[Aib]QGTFTSDYSKYLDEKACKDFVQWLLDGGPSSGAPPPS
modifications: bridge 16-20; not fully specified
B10: the “In vitro activity (%) … vs GLP-1” value in assay [3] came out at 151%. For the same molecule, the “In vitro activity (%) … vs GIP” value in assay [4] turned out to be 8.8%. For the same molecule, the “In vitro activity (%) … vs Glucagon” value in assay [5] came to 1.7%.

B11: triple agonist of SEQ ID NO: 3 (peptide)
peptide: H[Aib]QGTFTSDVSSYLLGQAAKQFIAWLVKGGGPSSGAPPPSC
modifications: not fully specified
Regarding B11, in assay [3], the “In vitro activity (%) … vs GLP-1” value was 1.8%. Moreover, in assay [4], the “In vitro activity (%) … vs GIP” value is below 0.1%. In addition, the “In vitro activity (%) … vs Glucagon” value in assay [5] is below 0.1%.

B12: triple agonist of SEQ ID NO: 21 (peptide)
peptide: Y[Aib]QGTFTSDYSKYLDECRAKEFVQWLLDHHPSSGQPPPS
modifications: bridge 16-20
With B12, the “In vitro activity (%) … vs GLP-1” value in assay [3] was 17.8%. Further, the “In vitro activity (%) … vs GIP” value in assay [4] worked out at 22.7%. Further, the “In vitro activity (%) … vs Glucagon” value in assay [5] turned out to be 267%.

B13: triple agonist of SEQ ID NO: 27 (peptide)
peptide: H[Aib]QGTFTSDYSKYLDERACQDFVQWLLDQGGPSSGAPPPS
modifications: not fully specified
B13: the “In vitro activity (%) … vs GLP-1” value in assay [3] came out at 83.1%. In addition, the “In vitro activity (%) … vs GIP” value in assay [4] amounted to 0.9%. The “In vitro activity (%) … vs Glucagon” value in assay [5] was 0.8%.

B14: triple agonist of SEQ ID NO: 16 (peptide)
peptide: [Acetyl(2-(4-imidazolyl))]GQGTFTSDLSKQMDSEAQQLFIEWLKNGGPSSGAPPPSHG
modifications: not fully specified
For B14, the “In vitro activity (%) … vs GLP-1” value in assay [3] stood at 2.1%. The “In vitro activity (%) … vs GIP” value in assay [4] is below 0.1%. Besides, the “In vitro activity (%) … vs Glucagon” value in assay [5] was below 0.1%.

B15: triple agonist of SEQ ID NO: 24 (peptide)
peptide: Y[Aib]QGTFTSDYSKYLDECRAKEFVQWLKNGGPSSGAPPPS
modifications: bridge 16-20
As for B15, the “In vitro activity (%) … vs GLP-1” value in assay [3] stood at 41.2%. Moreover, in assay [4], the “In vitro activity (%) … vs GIP” value is below 0.1%. In assay [5], the “In vitro activity (%) … vs Glucagon” value came out at 9.3%.

B16: triple agonist of SEQ ID NO: 17 (peptide)
peptide: [Acetyl(2-(4-imidazolyl))]GQGTFTSDLSKQMDEERAREFIEWLLAQKPSSGAPPPSHG
modifications: not fully specified
Take B16: the “In vitro activity (%) … vs GLP-1” value in assay [3] is 0.2%. Also, the “In vitro activity (%) … vs GIP” value in assay [4] was below 0.1%. The “In vitro activity (%) … vs Glucagon” value in assay [5] is below 0.1%.

B17: triple agonist of SEQ ID NO: 26 (peptide)
peptide: H[Aib]QGTFTSDCSKYLDSRAAQDFVQWLLDGGPSSGAPPPS
modifications: not fully specified
In the case of B17, the “In vitro activity (%) … vs GLP-1” value in assay [3] came out at 64.5%. For the same molecule, the “In vitro activity (%) … vs GIP” value in assay [4] was below 0.1%. In addition, in assay [5], the “In vitro activity (%) … vs Glucagon” value is 0.2%.

B18: triple agonist of SEQ ID NO: 18 (peptide)
peptide: [Acetyl(2-(4-imidazolyl))]GQGTFTSDLSKQMDSERAREFIEWLKNTGPSSGAPPPSHG
modifications: not fully specified
In the case of B18, the “In vitro activity (%) … vs GLP-1” value in assay [3] was below 0.1%. Also, in assay [4], the “In vitro activity (%) … vs GIP” value was below 0.1%. In assay [5], the “In vitro activity (%) … vs Glucagon” value is below 0.1%.
